From patent US20130330414A1

Target: 8.3-TCR on 8.3-CD8+ T-cells of 8.3-TCR-transgenic NOD mice
Experiment: cell-based or functional assay

Sequence of IGRP206-214/K^d pMHC complex (P01902 22-305, one chain of several): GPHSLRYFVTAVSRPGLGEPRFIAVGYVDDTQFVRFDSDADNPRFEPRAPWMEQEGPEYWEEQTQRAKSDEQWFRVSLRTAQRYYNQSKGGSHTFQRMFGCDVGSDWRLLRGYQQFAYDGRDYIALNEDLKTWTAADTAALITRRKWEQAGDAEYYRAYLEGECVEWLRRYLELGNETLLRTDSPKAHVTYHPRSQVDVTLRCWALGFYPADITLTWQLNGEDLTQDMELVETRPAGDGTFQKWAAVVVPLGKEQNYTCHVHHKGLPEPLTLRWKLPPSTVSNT

“IGRP206-214/K^d pMHC complex (from UniProt Q9Z186 206-214; P01902 22-305) (peptide-MHC)” gave an IFNγ responses (ng/mL); NP IGRP-SFP-011411, Fe3O4 8 nm, pMHC valency 54, 5 × 10^11 NPs/mL of 2.3 ng/mL, an IFNγ responses (ng/mL); NP IGRP-SFP-012011, Fe3O4 8 nm, pMHC valency 14, 5 × 10^11 NPs/mL of 0.2 ng/mL and an IFNγ responses (ng/mL); NP IGRP-SFP-031511, Fe3O4 8 nm, pMHC valency 15, 5 × 10^11 NPs/mL of 0.15 ng/mL. It also gave an IFNγ responses (ng/mL); NP IGRP-SFP-051211, Fe3O4 8 nm, pMHC valency 31, 5 × 10^11 NPs/mL of 0.7 ng/mL, an IFNγ responses (ng/mL); NP IGRP-SFP-100711, Fe3O4 8 nm, pMHC valency 39, 5 × 10^11 NPs/mL of 0.9 ng/mL and an IFNγ responses (ng/mL); NP IGRP-SFP-102912, Fe3O4 8 nm, pMHC valency 11, 5 × 10^11 NPs/mL of 0.4 ng/mL. It also gave an IFNγ responses (ng/mL); NP IGRP-SFPM-110512, Fe3O4 8 nm, pMHC valency 8, 5 × 10^11 NPs/mL of 0.03 ng/mL.
